These results are taken from the DeepSol protein solubility set.

The data set in a line: soluble on expression in E. coli; label from the status in PepcDB or PDB records.
With “MKLIGIVGSNADSSYNRLLLQYIGKEFYKMFDLEILEIKDIPMFNQSKDQTNSVLIQNMNRKILQADGVIIATPEHNHTIPAGLKSVLEWLSFKIHPLENKPVMIVGCSYYDQGTSRAQLHLRQILDAPGVNAIVMPGNEFLLGKAKEAFDENGNLIAEGTRQFLESTLQKFVEFIDVISKLEGAKPKDLPEDLHAKGTIETTIEGVDMAADDWVEQAAEAVQAVEGDTYVKLDRGILTVDQLNYFLKSMPMELTYADSNNQFLYYNKKMAAEEMFAKRQPGQVGNPLANCHPPKALKNVEWVIQQLRSGKTDAIRVHVPMHGPDTYVVHNYQAMYDDNGNYAGINEYILDFKPIVDWYLKQTGQELVGGKNVDAVSGASKKEAPETADSVSSASVHEEESATEKPTVDSVSSASIKE”, the “soluble on expression in E. coli” value is recorded as “not soluble”. Turning to “MGSDKIHHHHHHMPSPLLRRENKIKILRYILKNGKTTRNQLASNLNLAHSTLSYIIDELLDEGFLVFEEIKKKRGRPYQILSVNPEKFTAIGVKVGREEVRGVLFDARMNPLKEHRVQILSGMRNNDGYTRALRETIEQLRSENLLGVGICSSGIVKEGRVVVSHVMNVKDWDPRKVLKDLERILVMNDSDALCREISQRVNTDFLLVSYGVGIGASLWKDKKIHHIEMGHMLAASEGKCYCGQTGCLEYHSSEYAVLKSYLGKEIDFEDFITSEEEKYRQTIEELREKAREDFDSVKVHYEKAFKTFSVVLGNVIMGSGVSRVFFAGEGVVSEEMVKILEELVKVRFNRDFVGEVQFQVADANWMLGAARAVVDKYLPYIVK”, the “soluble on expression in E. coli” value was “not soluble”. For the sequence “MSLKQQVPLSTATVSMVHSVPELMVSSEQAEQLGREDQQRLHRNRKLVLMVDLDQTLIHTTEQHCQQMSNKGIFHFQLGRGEPMLHTRLRPHCKDFLEKIAKLYELHVFTFGSRLYAHTIAGFLDPEKKLFSHRILSRDECIDPFSKTGNLRNLFPCGDSMVCIIDDREDVWKFAPNLITVKKYVYFQGTGDMNAPPGSRESQTRKKVNHSRGTEEGHHHHHH”, the “soluble on expression in E. coli” value is reported as “not soluble”.

For “MSLCLPTIRKIAIIGAGPSGLVTAKALLAEKAFDQVTLFERRGSPGGVWNYTSTLSNKLPVPSTNPILTTEPIVGPAALPVYPSPLYRDLQTNTPIELMGYCDQSFKPQTLQFPHRHTIQEYQRIYAQPLLPFIKLATDVLDIEKKDGSWVVTYKGTKAGSPISKDIFDAVSICNGHYEVPYIPNIKGLDEYAKAVPGSVLHSSLFREPELFVGESVLVVGGASSANDLVRHLTPVAKHPIYQSLLGGGDIQNESLQQVPEITKFDPTTREIYLKGGKVLSNIDRVIYCTGYLYSVPFPSLAKLKSPETKLIDDGSHVHNVYQHIFYIPDPTLAFVGLALHVVPFPTSQAQAAFLARVWSGRLKLPSKEEQLKWQDELMFSLSGANNMYHSLDYPKDATYINKLHDWCKQATPVLEEEFPSPYWGEKERSIRENMWSIRAKFFGIEPPKEGHHHHHH”, the “soluble on expression in E. coli” value is “soluble”. For the sequence “MQLIPFEIPGILVGRFEKCSDNKREDERQRISLLLRRVFPHDTPQIGHLPSGKPILDSAHNISISHTGSYGAIYVTPSSLIPGIDIEMLSDRALRVAPRFMNEREYEWLMSADEARRRLLATIIWSAKETAYKIFNPSDASLKRFDVALPFELPSENTLFSFELIYSDSCTGDIHIPVQALCTGEFILTCACHCSHSR”, the “soluble on expression in E. coli” value is “not soluble”. Regarding “MSLQKNNLHIIIAEDDFDDADMICETFNQNPNFGKVSLVANGEELLNYLKNASNESPDVILTDINMPIVDGIEALQQILNNSDLKNIPCFVYSTSINPSYKEKCDDLGVKAYLIKPYSFEAFAEIPKTILSIIQAEGHHHHHH”, the “soluble on expression in E. coli” value is given as “soluble”. With “MGSDKIHHHHHHMTTLKARLRQGQAITMIGNSLPDTYAAEMVASAGFDAVMIDLQHSAIGLHEVNDLARAVRAQGCAPVVRVAANDPAAITKVLDGGVDAVVAPMINSAEACRQFISACYYAPLGDRSFGPYLGQVIQRQSIQDYYAQTRDRLLPIAMIENEEGVRQAEQIMRTEGLGAIYVGASDLSIAMGMDCVPDYRNARLLDCIKGLIDLGERCGIPVGAFAPTLEDSLMLQSLGSRILWVGSDQGFIKAGCAARAQQYHAESSPRR”, the “soluble on expression in E. coli” value is “not soluble”.

“MKKLLVIRNDKIGDFMLCFPAFMMLKQSMPNIEITALVPNYTAPLAELCPAIDHLIIDNTDKQDPIAFKQVQQAVQNGQFDAVICFVSSWYNAKLTWQSGIRYRLAPATKLFQFLYNHRLTQRRSQSIKAESEYNLDLARAFLIDHHMMPVEPQLEHHHHHH”: the “soluble on expression in E. coli” value is recorded as “soluble”. Regarding “MGSDKIHHHHHHSSCGNDESDPDSTVTIAMATVEKQPQYDAPYLVLDNGEKLWVVQHIVPYRDLKAGERIFGNYSFLEAGESGFAYNIRLNDYTLVPVQKIIGLNPDNMDSIGNMKVQIKDMWPSDDYLNVRFMLNFPSPQKPILNLVVNEMIPWTKDGYAHLELRYNNNGSQGRLVPGMVSFKLDDYSPENSELKGIKVLVNPVDGEEKTYIFSYPLTGEDVPGFNPLDLAELK”, the “soluble on expression in E. coli” value is “not soluble”. “KNFDGDLNDYRQWRLAQENAAVAPAASAQSQSRKDTKRIEAQIRQEKARRGKPIQQKIDRAEKEMAQLSEIQTACEAFLAQEEAYFEENKEKLQDTLSELAKVKTQLAQIEEVWLACQEELEQIETEIEKQFAER”: the “soluble on expression in E. coli” value is recorded as “not soluble”. The same measure for “GSHMTSFLHAYFTRLHCQPLGVPTVEALRTLHLAHNCAIPFENLDVLLPREIQLDETALEEKLLYARRGGYCFELNGLFERALRDIGFNVRSLLGRVILSHPASLPPRTHRLLLVDVEDEQWIADVGFGGQTLTAPLRLQAEIAQQTPHGEYRLMQEGSTWILQFRHHEHWQSMYCFDLGVQQQSDHVMGNFWSAHWPQSHFRHHLLMCRHLPDGGKLTLTNFHFTRYHQGHAVEQVNVPDVPSLYQLLQQQFGLGVNDVKHGFTEAELAAVMAAFDTHPEAGK”: “soluble”; for “MGSDKIHHHHHHMDAKTIIENRFQSQKLIQTAWSDSPERIVFHFGAMQSQNYGQSLWAVGSRMTTPSEESVEQAINNGEIIRTWLLRGTIHLFSAKDYHWMMDLIAPTIDKICKPYRAKLGLTDEVLHKATEVVSEIVSEQAVTRKDLAAHLATKDLPSAGIPFAQLLVYLSSRKVICSGPNETFRNTMHIPADTNHFTREEAIKELAKRYIQSHAPATLKDFCFWSGLTVTDAKIGLADMPKMGDYYITTLVENGTMPTTIPLAGFDEWIIGYRDRSVVLPEIWHDEIMTKNGIFRPAIITEGKVVGKWEKPKKRAELDGDFWDRYIQFRNML”: “not soluble”; for “MAHHHHHHMAITLPKLKYALNALSPHISEETLSFHYNKHHAGYVNKLNGLIKDTPLANKSLTDILKESTGAIFNNAAQIWNHSFYWDSMGPNCGGEPHGEIKEKIQEDFGSFNNFKDQFSNVLCGHFGSGWGWLALNKNNKLVILQTHDAGNPIKENTGIPILTCDVWEHAYYIDYRNDRLSYVKAWWNLVNWNFANENLKNALNK”: “soluble”.

Regarding “MGSDKIHHHHHHMTTILHAMLGKGLGGLEQVFLDYQPILEAWAARRGGRCVGVVRKGGKMAVAQANRTPPLSAMPALTDWDPITVGAARALVKTYRPALIFSHGQRPARVFDKAAPADVVRAVCLHKPSFDVTPGTHYVCVGQHLAALAIERGAPADHVWLVPNAVKPPGVEAQPFAEAGRPIRIVAAGRLHPKKGFDVLIHAVGKLRAWDYEVTCEIAGEGDERGALEGLIRDLDLEASVTLKGWTGDVAGFLATGDLFAFPSHQEGFPLTLLEAMAVGLPVVASEIDGPLEILTDGRDGRLVPDNDPDRLAEALAELISDRETAVRLGAAARQQVLTEYSPQELARRLEAALDGMTSRA”, the “soluble on expression in E. coli” value was “not soluble”. On to “MSLQIDEVSKKLNISKSMIRYYEEKGLINISRNQNNYREFNQTVYTTLKLIKDLKRLNLSLEEIKYIVNLFNKPTSKECNIQSTKYLDRIIKDYKRSINEQINILNRLEQVKELSQDMKFEENKTEILNMLAGVKEYDEGHHHHHH”, for which the “soluble on expression in E. coli” value is recorded as “not soluble”. Consider “MGHHHHHHSHGSYANEISSSIIINRPAERLFDLWRKPETLPILMGHFASIEILNHTDSNWRINTPIGSLIEWQARIIDEKPGEYIHWRSLEGARVPNEGRLSFQPAASEAGTAVTLTIRYNPPGGLIGKKIGQMFDMFSRDMLTKTLYRFKKLAEDER”, for which the “soluble on expression in E. coli” value was “soluble”.

As for “MAHHHHHHMKPKIPFIIEIFSSFGDNYSTNYIEKEMNLDIMNVVKNYDLDTLVEENKEANGTPHVTVDDAVDQIMDRFYDCSVFHKIILLDVSILFERVE”, the “soluble on expression in E. coli” value is on record as “not soluble”. Then “TKEGQIKGKLLLPGGVKTCPVVLIIAGSGPTDMDGNSAIGNLRNNSLKFLAEGLAANGIASLRFDKRGIGTSASAGKEEAKLRFEDYVNDVTGWIDYLAKEKRFTTITVAGHSEGALIGMLACQNRPKVKGYISVAGAGRPAYEIIEAQVAAQQNPEAVRKEVASINGSLKNGKEVSDVPAYLQSLYRASVQPYLISWFKYNPRTVIASVKVPVLIVQGKNDIQVSVEDAELLKKGCPAAELLLIDKMNHVLKDCESKAVQQQMLTYGNPSLPVNSTLIASVSTFVKKLK”, with “soluble”; and “MGSDKIHHHHHHMSARIPTLDITRFDSDREAFVAELGAAYRQWGFAGIRNHGIAQSDIDAAYEVFKAFFALPDEVKRSYHVPGSGGARGYTAFGVETAKDSKHFDLKEFWHIGREIPDDSPYRAVMAPNLWPTEVPGFRERGYHLYQQLDQLGSRVLSALALHIGLPQDYFADKTDHGNSILRPIHYPPITSDDIPNVRAGAHGDINFITLLVGASAAGLEVRSNEGEWVPFTADADTIVVNIGDMLQRLTNHVYPSTIHRVVNPPGEEARKPRYSVPFFLHPNPDFLIDVLPSCISADNPSRYPEPITAHGFLEERLREIKLK”, with “not soluble”. The same measure for “MGSDKIHHHHHHVSEAIVFTSGKGGVGKTTVISNIGVELSQLDKKVIMLDTDMGLRNLDLVMGIEDKVNYNILDILNRSCRIRQAIIRNKKYPNLYVIPAAPSMDTLCSYEARFKILIEELKASFDYCLIDSPAGIDSGFWFSVSPADRAIVVTTPHVSAIHDARRCISLLDSAHLDDISVIVNAYDKHMVRRHQMISDNDITALLSTRIIGTIPYDKSVIICQNRGIPVREAKSRLSPVFARISGQIIHSSDDMRGAAV”: “not soluble”; for “YHHSVVVGNLSEAACESIGENGLLARVGSYYHDLGKTRRPHFFIENQMKMENPHDRISPQLSATIIISHPYDGAKMLKEYKMPKEIIDIAEQHHGTSLLKYFYHKAQQESDQEVEETSFRYPGPKAQSKVAAIVGIADSVEA”: “soluble”; for “GMTSREDEIRDFLATHGYADWNRTPLAGDASSRRYQRLRSPTGAKAVLMDWSPEEGGDTQPFVDLAQYLRNLDISAPEIYAEEHARGLLLIEDLGDALFTEVINNDPAQEMPLYRAAVDLLIHLHDAQTPELARLDPETLSEMTRLAFSEYRYAILGDAAEDNRKRFEHRFAQILSAQLEGDMVFVHRDFHAQNLLWLPEREGLARVGVIDFQDAKLGHRAYDLVSLLQDARRDVPAQVEAQMIDHYIQATGVDESHFRSAYAVIAVQRNMRILGIFARLSQRFGKRHYIEFVPRVWAHFERGLAHPALASAAEEILNALPAPAPEVLERLRA”: “soluble”. As to “LAMVDNLQGDSGRGYYLEMLIGTPPQKLQILVDTGSSNFAVAGTPHSYIDTYFDTERSSTYRSKGFDVTVKYTQGSWTGFVGEDLVTIPKGFNTSFLVNIATIFESENFFLPGIKWNGILGLAYATLAKPSSSLETFFDSLVTQANIPNVFSMQMCGAGLPVAGSGTNGGSLVLGGIEPSLYKGDIWYTPIKEEWYYQIEILKLEIGGQSLNLDCREYNADKAIVDSGTTLLRLPQKVFDAVVEAVARASLIPEFSDGFWTGSQLACWTNSETPWSYFPKISIYLRDENSSRSFRITILPQLYIQPMMGAGLNYECYRFGISPSTNALVIGATVMEGFYVIFDRAQKRVGFAASPCAEIAGAAVSEISGPFSTEDVASNCVPA”, the “soluble on expression in E. coli” value was “soluble”.
